T1: EpCAM on CHO (dhfr-) cells transfected with EpCAM cDNA (UniProt P16422 24-314, limits assumed)
T1 construct: whole, on cells; also called EP-CAM homotypic adhesion molecule; EpCAM-transfected cells
T1 sequence (looked up): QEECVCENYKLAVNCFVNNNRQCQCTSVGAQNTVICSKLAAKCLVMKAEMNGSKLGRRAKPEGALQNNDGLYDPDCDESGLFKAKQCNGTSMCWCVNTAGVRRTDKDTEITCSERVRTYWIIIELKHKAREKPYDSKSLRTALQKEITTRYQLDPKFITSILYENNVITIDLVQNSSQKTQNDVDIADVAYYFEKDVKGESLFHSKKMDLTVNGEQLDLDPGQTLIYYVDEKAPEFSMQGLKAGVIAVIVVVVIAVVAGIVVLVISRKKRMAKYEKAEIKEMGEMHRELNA

T2: Affinity-purified human CD46 from LS174T cells (human, UniProt P15529 35-392, limits assumed)
T2 construct: Coupled (640 RU) to CM5 chips for the BIACORE work; also called purified CD46; membrane cofactor protein CD46
T2 sequence (looked up): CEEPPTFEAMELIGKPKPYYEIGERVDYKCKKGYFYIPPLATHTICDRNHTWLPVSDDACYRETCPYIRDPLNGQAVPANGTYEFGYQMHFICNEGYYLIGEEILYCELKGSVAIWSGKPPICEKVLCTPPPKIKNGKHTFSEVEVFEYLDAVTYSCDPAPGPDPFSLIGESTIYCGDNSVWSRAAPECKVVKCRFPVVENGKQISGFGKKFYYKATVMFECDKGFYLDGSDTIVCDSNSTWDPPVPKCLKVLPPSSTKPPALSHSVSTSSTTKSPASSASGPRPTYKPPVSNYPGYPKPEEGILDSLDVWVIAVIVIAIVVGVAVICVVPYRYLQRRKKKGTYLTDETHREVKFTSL

T3: CD46 on cells (human colon carcinoma LS174T cells; CHO (dhfr-) cells transfected with CD46 cDNA) (human, UniProt P15529 35-392)
T3 construct: whole, on cells; also called CD46 transfectants; cofactor protein CD46
T3 sequence (looked up): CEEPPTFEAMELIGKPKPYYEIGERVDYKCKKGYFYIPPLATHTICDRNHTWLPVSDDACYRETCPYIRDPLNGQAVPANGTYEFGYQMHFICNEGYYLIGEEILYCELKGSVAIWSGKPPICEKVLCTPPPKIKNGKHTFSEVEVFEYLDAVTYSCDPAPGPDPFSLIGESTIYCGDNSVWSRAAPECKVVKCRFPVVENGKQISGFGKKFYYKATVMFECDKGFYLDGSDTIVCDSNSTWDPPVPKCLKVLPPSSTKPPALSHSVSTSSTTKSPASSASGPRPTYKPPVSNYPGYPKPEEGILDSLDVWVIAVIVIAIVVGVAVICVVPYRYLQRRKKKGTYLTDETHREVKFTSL

B1: 02-237 IgG (antibody, V domains shown)
VH: QVQLVQSGAEVKKPGASVKVSCKASGYTFTSYGISWVRQAPGQGLEWMGWISAYNGNTNYAQKLQGRVTMTTDTSTSTAYMELRSLRSDDTAVYYCARGFPRTSFDSWGQGTLVTVSS
VL: not shown
modifications: amino acid residue 1 is a pyroglutamic acid (remark to Table III)
notes: Tested as human IgG1 (constant domains from pCRU-K01); The N-terminus of its light chain differs slightly from that of UBS54/K53 because of the cloning strategy
B2: K53 IgG (antibody, V domains shown)
VH: QVQLVQSGAEVKKPGASVKVSCKASGYTFTSYGISWVRQAPGQGLEWMGWISAYNGNTNYAQKLQGRVTMTTDTSTSTAYMELRSLRSDDTAVYYCARGMMRGVFDYWGQGTLVTVST
VL: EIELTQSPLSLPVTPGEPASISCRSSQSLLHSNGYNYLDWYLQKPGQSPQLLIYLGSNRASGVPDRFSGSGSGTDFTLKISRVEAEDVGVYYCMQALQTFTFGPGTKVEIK
modifications: amino acid residue 1 is a pyroglutamic acid (remark to Table III)
notes: also called clone K53; anti-CD46 clone K53
B3: UBS54 IgG (antibody, V domains shown)
VH: QVQLVQSGAEVKKPGSSVRVSCKASGGTFSSYAISWVRQAPGQGLEWMGGIIPIFGTANYAQKFQGRVTITADESTSTAYMELSSLRSEDTAVYYCARDPFLHYWGQGTLVTVST
VL: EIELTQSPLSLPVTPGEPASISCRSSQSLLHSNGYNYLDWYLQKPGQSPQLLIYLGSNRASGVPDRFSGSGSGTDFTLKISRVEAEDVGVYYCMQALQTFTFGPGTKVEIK
modifications: amino acid residue 1 is a pyroglutamic acid (remark to Table III)
notes: Tested as full human IgG1 with kappa light chain; also called anti-EpCAM clone UBS54; encoded by pUBS3000Neo

Experiments:
[1] = molecular target: T1, EpCAM on CHO (dhfr-) cells transfected …; experiment: FACS on CHO cells transfected with EpCAM, CD46 or CD38
[2] = molecular target: T4, CD38 on CHO (dhfr-) cells transfected with CD38 cDNA (UniProt P28907 1-300, limits assumed); experiment: as above
T4 construct: whole, on cells; also called control antigen CD38; negative control (CD38)

[3] = molecular target: T2, Affinity-purified human CD46 from …; experiment: SPR (BIACORE 3000, 37° C.), purified CD46 coupled to CM5 chip, IgG in solution
[4] = molecular target: T3, CD46 on cells (human colon carcinoma …); experiment: FACS on CHO cells transfected with EpCAM, CD46 or CD38

Binder | binding result [1] | binding result [2] | Kd [3] [nM] | binding result [4]
B1 | no binding (tested: 20 µg IgG1/ml) | no binding (tested: 20 µg IgG1/ml) | 22 | –
B2 | no binding (tested: 20 µg IgG1/ml) | no binding (tested: 20 µg IgG1/ml) | 910 | –
B3 | – | no binding (tested: 20 µg IgG1/ml) | – | no binding (tested: 20 µg IgG1/ml)
